According to patent publication US20070154994:

Biological target: T1, TGF-β receptor I-K coil fusion protein (kinase domain)
T1 chain: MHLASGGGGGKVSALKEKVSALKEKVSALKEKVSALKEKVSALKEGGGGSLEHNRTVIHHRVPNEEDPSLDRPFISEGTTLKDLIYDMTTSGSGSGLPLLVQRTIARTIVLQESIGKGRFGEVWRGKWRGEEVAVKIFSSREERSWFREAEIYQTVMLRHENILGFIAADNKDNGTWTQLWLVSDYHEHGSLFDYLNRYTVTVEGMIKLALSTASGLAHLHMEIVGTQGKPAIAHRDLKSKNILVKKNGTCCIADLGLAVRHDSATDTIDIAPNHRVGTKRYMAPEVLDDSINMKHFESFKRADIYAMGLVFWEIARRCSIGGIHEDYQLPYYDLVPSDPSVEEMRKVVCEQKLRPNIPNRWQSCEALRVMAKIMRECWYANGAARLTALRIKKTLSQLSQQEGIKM

B1: TGF-β receptor II-E coil fusion protein (kinase domain) (protein)
chain: MHLASGGGGGEVSALEKEVSALEKEVSALEKEVSALEKEVSALEKGGGGSLERVNRQQKLSSTWETGKTRKLMEFSEHCAIILEDDRSDISSTCANNINHNTELLPIELDTLVGKGRFAEVYKAKLKQNTSEQFETVAVKIFPYEEYASWKTEKDIFSDINLKHENILQFLTAEERKTELGKQYWLITAFHAKGNLQEYLTRHVISWEDLRKLGSSLARGIAHLHSDHTPCGRPKMPIVHRDLKSSNILVKNDLTCCLCDFGLSLRLDPTLSVDDLANSGQVGTARYMAPEVLESRMNLENAESFKQTDVYSMALVLWEMTSRCNAVGEVKDYEPPFGSKVREHPCVESMKDNVLRDRGRPEIPSFWLNHQGIQMVCETLTECWDHDPEARLTAQCVAERFSELEHLDRLSGRSCSEEKIPEDGSLNTTK
- autophosphorylation with P33-gamma ATP, SDS-PAGE and phosphorimaging: Lane 4 corresponding to the heterodimer shows the most autophosphorylation
